Source: publication PMC9470675 (Signal Transduction and Targeted Therapy, 2022)

B1: SARS-CoV N protein (purified recombinant) (natural protein)
chain: not shown
B2: recombinant MASP-2 (purified) (enzyme, human, UniProt O00187 16-686, looked up)
chain: TPLGPKWPEPVFGRLASPGFPGEYANDQERRWTLTAPPGYRLRLYFTHFDLELSHLCEYDFVKLSSGAKVLATLCGQESTDTERAPGKDTFYSLGSSLDITFRSDYSNEKPFTGFEAFYAAEDIDECQVAPGEAPTCDHHCHNHLGGFYCSCRAGYVLHRNKRTCSALCSGQVFTQRSGELSSPEYPRPYPKLSSCTYSISLEEGFSVILDFVESFDVETHPETLCPYDFLKIQTDREEHGPFCGKTLPHRIETKSNTVTITFVTDESGDHTGWKIHYTSTAQPCPYPMAPPNGHVSPVQAKYILKDSFSIFCETGYELLQGHLPLKSFTAVCQKDGSWDRPMPACSIVDCGPPDDLPSGRVEYITGPGVTTYKAVIQYSCEETFYTMKVNDGKYVCEADGFWTSSKGEKSLPVCEPVCGLSARTTGGRIYGGQKAKPGDFPWQVLILGGTTAAGALLYDNWVLTAAHAVYEQKHDASALDIRMGTLKRLSPHYTQAWSEAVFIHEGYTHDAGFDNDIALIKLNNKVVINSNITPICLPRKEAESFMRTDDIGTASGWGLTQRGFLARNLMYVDIPIVDHQKCTAAYEKPPYPRGSVTANMLCAGLESGGKDSCRGDSGGALVFLDSETERWFVGGIVSWGSMNCGEAGQYGVYTKVINYIPWIENIISDF
notes: also called Purified MASP-2

What was measured:
[1] = biological target: B2; test: SPR; purified proteins; who was immobilised and the conditions not given; details: both partners purified
[2] = biological target: Purified SARS-CoV-2 N-His (SARS-CoV-2, UniProt P0DTC9 1-419); test: as above; details: both partners purified

| Binder | Kd [1] [nM] | Kd [2] [nM] |
| --- | --- | --- |
| B1 | 268 | – |
| B2 | – | 518 |
